According to patent publication US20240360223A1 (DRAGONFLY THERAPEUTICS, published 2024):
“And” between values parts separate entries of the source, which are not always exact repeats. Equal values may be shown once.

What was measured:
[1] = molecular target: T1, human BAFF-R expressed on cells (human, UniProt Q96RJ3 1-184); assay: flow cytometry, human BAFF-R CHO cells
T1 construct: Cell surface BAFF-R, endogenous on B cell lines and primary B cells or overexpressed on isogenic CHO cells; also called hBAFF-R; hBAFF-R-CHO
Source text: Isogenic cell lines overexpressing human and cynomolgus BAFF-R on the backbone of CHO cell line were designed.

human CD16a F158 [2] = molecular target: T2, human CD16a F158 (human, UniProt P08637 17-208); assay: SPR, steady state, average
T2 sequence (P08637 17-208 limits assumed): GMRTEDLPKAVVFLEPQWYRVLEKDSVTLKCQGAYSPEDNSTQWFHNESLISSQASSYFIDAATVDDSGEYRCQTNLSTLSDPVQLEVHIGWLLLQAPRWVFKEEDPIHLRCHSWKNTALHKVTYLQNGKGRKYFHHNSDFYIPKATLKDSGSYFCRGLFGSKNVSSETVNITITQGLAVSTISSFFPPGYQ

[3] = molecular target: T1, human BAFF-R expressed on cells; assay: flow cytometry, Jeko-1 cells
human CD32b [4] = molecular target: T3, human CD32b (human, UniProt P31994 46-217, limits assumed); assay: SPR, steady state, average
T3 construct: also called FcγRIIb
T3 sequence (looked up): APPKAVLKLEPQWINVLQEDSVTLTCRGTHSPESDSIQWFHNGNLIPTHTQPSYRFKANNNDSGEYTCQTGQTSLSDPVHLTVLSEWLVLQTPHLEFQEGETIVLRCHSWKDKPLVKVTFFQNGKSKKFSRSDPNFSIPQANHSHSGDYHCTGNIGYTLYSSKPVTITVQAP

[5] = molecular target: T4, human NKG2D (recombinant mFc-tagged dimer) (human, UniProt P26718 78-216); assay: SPR, kinetics fit, average
T4 construct: also called hNKG2D
T4 sequence (looked up): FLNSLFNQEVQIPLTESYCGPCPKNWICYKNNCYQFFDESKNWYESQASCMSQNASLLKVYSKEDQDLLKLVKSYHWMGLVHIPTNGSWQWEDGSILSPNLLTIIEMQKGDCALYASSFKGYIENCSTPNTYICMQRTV
Source text: (§1) NKG2D is a native dimer, therefore recombinant mFc-tagged NKG2D dimer was used for this experiment. Two different fits were utilized to obtain the equilibrium affinity data: steady state affinity fit and kinetic fit.

cynomolgus CD16 [6] = molecular target: T5, cynomolgus CD16 (cynomolgus, UniProt Q8SPW2 17-208, limits assumed); assay: SPR, cynomolgus FcγRIII, summary table
T5 construct: also called Cyno CD16; cynomolgus FcγRIII
T5 sequence (Q8SPW2 17-208 limits assumed): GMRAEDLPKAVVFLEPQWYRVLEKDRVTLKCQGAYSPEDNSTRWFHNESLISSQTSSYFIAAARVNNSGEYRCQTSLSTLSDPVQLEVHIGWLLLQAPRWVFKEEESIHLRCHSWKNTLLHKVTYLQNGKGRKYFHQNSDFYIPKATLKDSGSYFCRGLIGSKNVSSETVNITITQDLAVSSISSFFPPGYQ

[7] = molecular target: T6, cynomolgus NKG2D (recombinant mFc-tagged dimer) (cynomolgus, UniProt P61252 78-216); assay: SPR, 1:1 kinetic fit, average
T6 construct: also called cyno NKG2D
T6 sequence (looked up): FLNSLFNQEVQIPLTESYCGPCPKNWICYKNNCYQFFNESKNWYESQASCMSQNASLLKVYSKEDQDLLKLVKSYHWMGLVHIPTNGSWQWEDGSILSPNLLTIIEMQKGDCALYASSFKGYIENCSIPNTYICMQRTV
Source text: as §1

[8] = molecular target: T1, human BAFF-R expressed on cells; assay: blocking of BAFF-biotin on hBAFF-R CHO cells
cynomolgus CD16 [9] = molecular target: T5, cynomolgus CD16; assay: SPR
[10] = molecular target: T6, cynomolgus NKG2D (recombinant …); assay: SPR
[11] = molecular target: T1, human BAFF-R expressed on cells; assay: flow cytometry, CHO-hBAFF-R cells
human CD32a R131 = molecular target: T7, human CD32a R131 (human, UniProt P12318 36-218, limits assumed); assay: SPR, recombinant receptor; reference trastuzumab
T7 construct: also called FcγRIIa R131
T7 sequence (looked up): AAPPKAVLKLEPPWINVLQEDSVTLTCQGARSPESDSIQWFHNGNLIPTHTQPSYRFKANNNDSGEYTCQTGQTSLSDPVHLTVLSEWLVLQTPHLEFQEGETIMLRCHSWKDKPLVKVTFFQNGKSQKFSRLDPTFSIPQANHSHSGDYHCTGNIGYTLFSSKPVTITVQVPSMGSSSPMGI

human CD64 = molecular target: T8, human CD64 (human, UniProt P12314 16-288, limits assumed); assay: SPR, recombinant receptor; reference trastuzumab
T8 construct: also called FcγRI
T8 sequence (P12314 16-288 limits assumed): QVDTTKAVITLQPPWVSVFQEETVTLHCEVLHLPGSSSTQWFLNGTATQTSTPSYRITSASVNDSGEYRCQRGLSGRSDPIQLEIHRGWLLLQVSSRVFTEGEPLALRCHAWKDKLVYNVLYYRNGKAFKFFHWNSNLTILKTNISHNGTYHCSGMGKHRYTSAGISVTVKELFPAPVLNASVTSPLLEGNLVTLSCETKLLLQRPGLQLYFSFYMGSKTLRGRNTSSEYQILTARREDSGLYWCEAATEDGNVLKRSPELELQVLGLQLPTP

human CD32a H131 = molecular target: T9, human CD32a H131 (human, UniProt P12318 36-218, limits assumed); assay: SPR, recombinant receptor; reference trastuzumab
T9 sequence (looked up): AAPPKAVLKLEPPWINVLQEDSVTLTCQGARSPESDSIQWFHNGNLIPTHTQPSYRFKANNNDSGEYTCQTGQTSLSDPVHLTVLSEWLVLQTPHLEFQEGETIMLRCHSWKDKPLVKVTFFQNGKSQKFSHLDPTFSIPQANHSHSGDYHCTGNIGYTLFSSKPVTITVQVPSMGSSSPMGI

human CD16a V158 = molecular target: T10, human CD16a V158 (human, UniProt P08637 17-208); assay: SPR, recombinant receptor; reference trastuzumab
T10 construct: also called hCD16aV; hCD16a V158
T10 sequence (P08637 17-208 F176V limits assumed): as the sequence (P08637 17-208 limits assumed) above, with F160V counted along it

cynomolgus CD16 [12] = molecular target: T5, cynomolgus CD16; assay: SPR, recombinant receptor; reference trastuzumab
human CD32b [13] = molecular target: T3, human CD32b; assay: SPR, recombinant receptor; reference trastuzumab
human CD16b = molecular target: T11, human CD16b (human, UniProt O75015 17-200, limits assumed); assay: SPR, recombinant receptor; reference trastuzumab
T11 construct: also called FcγRIIIb
T11 sequence (O75015 17-200 limits assumed): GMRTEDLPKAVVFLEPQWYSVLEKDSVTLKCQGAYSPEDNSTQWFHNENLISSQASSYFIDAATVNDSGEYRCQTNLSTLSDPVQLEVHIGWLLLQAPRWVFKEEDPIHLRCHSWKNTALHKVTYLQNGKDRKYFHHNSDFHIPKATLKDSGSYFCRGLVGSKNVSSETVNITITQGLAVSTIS

human CD16a F158 [14] = molecular target: T2, human CD16a F158; assay: SPR, recombinant receptor; reference trastuzumab
human FcRn = human FcRn (human, UniProt P55899 24-297; P61769 21-119); assay: SPR, pH 6.0, steady state; pH 6.0; fourth replicate
[15] = molecular target: T12, cynomolgus monkey BAFF-R expressed on cells (cynomolgus monkey); assay: flow cytometry, cyno BAFF-R CHO cells
T12 construct: whole, on cells; also called cBAFF-R; cynoBAFF-R

[16] = molecular target: T6, cynomolgus NKG2D (recombinant …); assay: SPR, steady state fit, average
Source text: Two different fits were utilized to obtain the equilibrium affinity data: steady state affinity fit and kinetic fit.

EC50 [1]: 0.9 nM
Max FOB [1]: 85 fold over background
Kd (human CD16a F158 [2]): 1350 nM
EC50 [3]: 0.13 nM
Max FOB [3]: 7 fold over background
Kd (human CD32b [4]): 5900 nM
Kd [5]: 456 nM
Kd (cynomolgus CD16 [6]): 271 nM
Kd [7]: 517 nM
IC50 [8]: 6.76 nM
Kd (cynomolgus CD16 [9]): 261 nM and 269 nM and 283 nM and 260 nM
koff (cynomolgus CD16 [9]): 0.02 s⁻¹ and 0.021 s⁻¹
kon (cynomolgus CD16 [9]): 78000 M⁻¹ s⁻¹ and 72000 M⁻¹ s⁻¹
koff [10]: 0.11 s⁻¹ and 0.1 s⁻¹
kon [10]: 210000 M⁻¹ s⁻¹ and 200000 M⁻¹ s⁻¹
EC50 [11]: 0.7 nM
Max FOB [11]: 146 fold over background
fold difference in binding against trastuzumab (human CD32a R131): < 1.2 fold
fold difference in binding against trastuzumab (human CD64): < 3 fold
fold difference in binding against trastuzumab (human CD32a H131): < 1.2 fold
fold difference in binding against trastuzumab (human CD16a V158): < 3 fold
fold difference in binding against trastuzumab (cynomolgus CD16 [12]): < 3 fold
fold difference in binding against trastuzumab (human CD32b [13]): < 1.2 fold
fold difference in binding against trastuzumab (human CD16b): < 3 fold
fold difference in binding against trastuzumab (human CD16a F158 [14]): < 3 fold
Kd (human FcRn): 1100 nM
EC50 [15]: 1.85 nM
Kd [16]: 609 nM
B1: AB1424/AB1612 F3′ TriNKET (bispecific antibody, human IgG1, kappa)
chain: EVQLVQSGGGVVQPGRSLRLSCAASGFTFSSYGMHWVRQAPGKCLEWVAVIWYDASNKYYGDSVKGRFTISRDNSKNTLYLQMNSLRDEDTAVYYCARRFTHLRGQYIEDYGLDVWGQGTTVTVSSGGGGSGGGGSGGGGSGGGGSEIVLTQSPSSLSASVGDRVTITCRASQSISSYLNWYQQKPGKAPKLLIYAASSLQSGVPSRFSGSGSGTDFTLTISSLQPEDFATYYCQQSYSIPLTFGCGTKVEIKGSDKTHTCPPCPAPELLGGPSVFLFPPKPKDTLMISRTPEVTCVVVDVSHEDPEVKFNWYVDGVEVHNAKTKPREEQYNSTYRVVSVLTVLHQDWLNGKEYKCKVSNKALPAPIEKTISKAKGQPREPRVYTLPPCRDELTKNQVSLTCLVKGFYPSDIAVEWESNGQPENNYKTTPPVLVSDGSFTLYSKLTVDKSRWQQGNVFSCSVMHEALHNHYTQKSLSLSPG
heavy: EVQLVESGGGLVKPGGSLRLSCAASGFTFSSYSMNWVRQAPGKGLEWVSSISSSSSYIYYADSVKGRFTISRDNAKNSLYLQMNSLRAEDTAVYYCARGAPIGAAAGWFDPWGQGTLVTVSSASTKGPSVFPLAPSSKSTSGGTAALGCLVKDYFPEPVTVSWNSGALTSGVHTFPAVLQSSGLYSLSSVVTVPSSSLGTQTYICNVNHKPSNTKVDKKVEPKSCDKTHTCPPCPAPELLGGPSVFLFPPKPKDTLMISRTPEVTCVVVDVSHEDPEVKFNWYVDGVEVHNAKTKPREEQYNSTYRVVSVLTVLHQDWLNGKEYKCKVSNKALPAPIEKTISKAKGQPREPQVCTLPPSRDELTENQVSLTCLVKGFYPSDIAVEWESNGQPENNYKTTPPVLDSDGSFFLYSWLTVDKSRWQQGNVFSCSVMHEALHNHYTQKSLSLSPG
light: DIQMTQSPSSVSASVGDRVTITCRASQGISSWLAWYQQKPGKAPKLLIYAASSLQSGVPSRFSGSGSGTDFTLTISSLQPEDFATYYCQQGVSFPRTFGGGTKVEIKRTVAAPSVFIFPPSDEQLKSGTASVVCLLNNFYPREAKVQWKVDNALQSGNSQESVTEQDSKDSTYSLSSTLTLSKADYEKHKVYACEVTHQGLSSPVTKSFNRGEC
notes: Chain S: anti-BAFF-R scFv-CH2-CH3; chain H: anti-NKG2D VH-CH1-CH2-CH3; chain L: anti-NKG2D VL-CL; also called AB1612-002
